This is an account of results in patent US20230192767A1 (MEDIKINE, published 2023).

The target of experiment [1] is T1, human IL-2Rβ (CD122 protein, Fc Tag) (27-239) (human, UniProt P14784 27-239).
T1 construct: range 27-239; Bought protein; also called IL-2Rβ subunit; IL-2Rβ-Fc; not shown: Fc Tag of the bought protein (ACRObiosystems ILB-H5253)
T1 sequence (looked up): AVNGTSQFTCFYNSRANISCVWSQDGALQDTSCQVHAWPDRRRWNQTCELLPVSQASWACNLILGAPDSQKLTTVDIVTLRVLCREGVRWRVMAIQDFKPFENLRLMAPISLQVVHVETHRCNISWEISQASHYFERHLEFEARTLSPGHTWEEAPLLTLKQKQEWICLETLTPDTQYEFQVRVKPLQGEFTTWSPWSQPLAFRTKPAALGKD
Kind of experiment: pH-dependent ELISA (Examples 9-12). Here is the method:
For each peptide to be assayed, 16 ELISA plate wells were coated with neutravidin ([…] in PBS pH7.2) at 50 μL/well. The coated wells were incubated at 25° C. for at least 1 h.
The neutravidin was removed from each well. Three-hundred (300) μL of blocking buffer (1×PBS pH 7.2, 1% BSA) was added to each well of the neutravidin-coated plates. All plates were covered and maintained at 25° C. for 1 h or overnight at 4° C.
The biotinylated peptides were diluted to 1 μM in PBT pH 7.2 buffer and 50 uL was added to the appropriate 16 wells (8 for each binding pH). The plates were incubated at 25° C. for at least 1 h.
For orientation: In an ELISA, binding on a coated surface is turned into a signal by an enzyme label.

Experiment [2] concerns the target T1, human IL-2Rβ (CD122 protein, Fc Tag) …. In words: IC50, method not told in the paragraph.

As for KDCRLAYVGELCDLNRSDTI [SEQ ID NO 423], the “decrease in binding at pH 7.5 compared to pH 6.0” value (shortened to “decrease in binding”) in experiment [1] was over 15%.

Consider GLNPMIPGCQMAQVGELCEL [SEQ ID NO 463], for which the “decrease in binding” value in experiment [1] is over 15%.

Take SWVNNCRMAQVGELCDLPNW [SEQ ID NO 460]: the “decrease in binding” value in experiment [1] is over 15%.

In the case of YDCQKAQLGELCDLRYSVRD [SEQ ID NO 536], in experiment [1], the “decrease in binding” value is over 15%.

In the case of LLSYPCRMAQVGELCDIAMK [SEQ ID NO 570], the “decrease in binding” value in experiment [1] was over 15%.

As to EYFSHDQDCQTAQLGELCKM [SEQ ID NO 471], in experiment [1], the “decrease in binding” value was over 15%.

Regarding YACRFAHVGDLCDL [SEQ ID NO 534], the “decrease in binding” value in experiment [1] was over 15%.

In the case of GYEPIMRACRNAQVGDLCDL [SEQ ID NO 506], the “decrease in binding” value in experiment [1] is over 15%.

Take WGRQECRFANVGDLCDVSNY [SEQ ID NO 491]: the “decrease in binding” value in experiment [1] is over 15%.

On to QDCRLAHLGDLCDLWSPRQN [SEQ ID NO 477], for which the “decrease in binding” value in experiment [1] is over 15%.

As for HECRFAQVGELCDL [SEQ ID NO 418], the “decrease in binding” value in experiment [1] is over 15%.

Regarding WPMSQFQKCATAQVGELCEL [SEQ ID NO 499], the “decrease in binding” value in experiment [1] was over 15%.

For the molecule LLCRMAHLGELCDL [SEQ ID NO 448], the “decrease in binding” value in experiment [1] is over 15%.

As for QVLKNCRLAHIGELCYLSER [SEQ ID NO 428], the “decrease in binding” value in experiment [1] was over 15%.

On to FECWIAQVGELCDL [SEQ ID NO 411], for which, in experiment [1], the “decrease in binding” value was over 15%.

In the case of LSCSIAQVGELCDL [SEQ ID NO 456], the “decrease in binding” value in experiment [1] is over 15%.

On to HQCRFAHVGELCDLFVFESY [SEQ ID NO 419], for which the “decrease in binding” value in experiment [1] was over 15%.

With LEFMWIQDCGMAEVGELCEL [SEQ ID NO 468], in experiment [1], the “decrease in binding” value was over 15%.

With QNCSTAKVGELCDLLMEGTE [SEQ ID NO 503], in experiment [1], the “decrease in binding” value is over 15%.

With EQTRSGYACRTAQVGELCDL [SEQ ID NO 535], the “decrease in binding” value in experiment [1] was over 15%.

On to WQCRWAQVGELCDLSSENDN [SEQ ID NO 531], for which the “decrease in binding” value in experiment [1] was over 15%.

For the molecule TYAKLVNYCWTAQLGELCYL [SEQ ID NO 461], the “decrease in binding” value in experiment [1] is over 15%.

On to VLCRIAQVGQLCEL [SEQ ID NO 526], for which, in experiment [1], the “decrease in binding” value was over 15%.

NLRQNCRDAPVGELCDLEWI [SEQ ID NO 501]: the “decrease in binding” value in experiment [1] was over 15%.

As for QDGAKLKECRVAQVGELCEF [SEQ ID NO 427], the “decrease in binding” value in experiment [1] was over 15%.

Turning to YPCRMADVGELCDL [SEQ ID NO 569], the “decrease in binding” value in experiment [1] is over 15%.

For GVKDGWEDCGIAQVGELCVL [SEQ ID NO 402], the “decrease in binding” value in experiment [1] was over 15%.

Consider VDCWIAQLGELCELEDGRRQ [SEQ ID NO 524], for which the “decrease in binding” value in experiment [1] was over 15%.

On to LDCRIAPLGELCDMFISAFN [SEQ ID NO 436], for which the “decrease in binding” value in experiment [1] is over 15%.

Regarding AVKRFRQDCRTAPVGTLCDL [SEQ ID NO 485], the “decrease in binding” value in experiment [1] was over 15%.

Regarding FIAQKCRLAKVGELCDLGYS [SEQ ID NO 500], in experiment [1], the “decrease in binding” value is over 15%.

As a reminder, the IC50 is the point on the concentration scale where inhibition reaches its midpoint. Read a low IC50 as higher potency. In experiment [2], YDCRIAQVGELCDL (also called Peptide E) [IL-2Rβ ligand SEQ ID NO: 58] had an IC50 of under 10 µM.

As to KSCARAQVGELCYIEGAEDA [SEQ ID NO 430], the “decrease in binding” value in experiment [1] was over 15%.

As for QDCRMAQVGHLCDL [SEQ ID NO 481], the “decrease in binding” value in experiment [1] was over 15%.

On to LECRLARLGDLCYL [SEQ ID NO 443], for which the “decrease in binding” value in experiment [1] is over 15%.

In the case of KACSIAQVGDLCEIYGFDDA [SEQ ID NO 421], the “decrease in binding” value in experiment [1] was over 15%.

For the molecule LRCRMAQVGDLCDLDRAWDW [SEQ ID NO 454], the “decrease in binding” value in experiment [1] is over 15%.

In the case of YLCQVAGVGELCDLEESGRN [SEQ ID NO 566], in experiment [1], the “decrease in binding” value is over 15%.

Take KDCRTALIGDLCDLTLHLGG [SEQ ID NO 425]: in experiment [1], the “decrease in binding” value is over 15%.

For EDCWMAQVGQLCDL [SEQ ID NO 403], the “decrease in binding” value in experiment [1] was over 15%.

For the molecule VTGWTYRDCRIANVGDLCEL [SEQ ID NO 507], in experiment [1], the “decrease in binding” value was over 15%.

Take RTMKQCSIAQVGELCDLAVT [SEQ ID NO 429]: in experiment [1], the “decrease in binding” value was over 15%.

For TWAYDCRTAEVGELCDLPVQ [SEQ ID NO 551], in experiment [1], the “decrease in binding” value was over 15%.

As for QDCRKANVGELCYLDWDSPT [SEQ ID NO 476], the “decrease in binding” value in experiment [1] is over 15%.

As to GRFYPCNMAQVGELCELMEY [SEQ ID NO 568], the “decrease in binding” value in experiment [1] is over 15%.

In the case of QPCRNAHLGQLCDLQTWTNS [SEQ ID NO 505], the “decrease in binding” value in experiment [1] was over 15%.

Take QDCRMAHLGELCTL [SEQ ID NO 480]: the “decrease in binding” value in experiment [1] is over 50%.

As to DEMQDCQIAQVGELCDLGLE [SEQ ID NO 470], in experiment [1], the “decrease in binding” value was over 15%.

In the case of YDCRMAKVGDLCDLWSVWGR [SEQ ID NO 548], the “decrease in binding” value in experiment [1] was over 15%.

VLEVLRQECRMAQVGELCDL [SEQ ID NO 494]: the “decrease in binding” value in experiment [1] was over 15%.

Turning to HDCWFAKLGELCDLRQMSFV [SEQ ID NO 416], the “decrease in binding” value in experiment [1] is over 15%.

SDCSVANVGDLCNL [SEQ ID NO 515]: the “decrease in binding” value in experiment [1] is over 15%.

Consider SVWQECSMAQVGDLCELHIG [SEQ ID NO 495], for which the “decrease in binding” value in experiment [1] is over 15%.
